# Reference: patent US20090317363A1
# Target: CCR5 (UniProt P51681)
# Assay: cell-based or functional assay
Binder,CCR5 sequestration (%) (% of control surface CCR5),CCR5 signalling (%) (% of Emax of PSC-RANTES),"anti-HIV potency (IC50, nM) by cell fusion assay","anti-HIV potency (IC50, nM) by viral replication assay"
RANTES derivative: signature sequence SEQ ID NO: 58 fused to positions 10-68 of native RANTES (SEQ ID NO: 1) (ligand) QGPPLMTLQVCCFAYIARPLPRAHIKEYFYTSGKCSNPAVVFVTRKNRQVCANPEKKWVREYINSLEMS,25,0.7,0.23 nM,–
RANTES derivative: signature sequence SEQ ID NO: 16 fused to positions 10-68 of native RANTES (SEQ ID NO: 1) (ligand) QGPPGDTVLWCCFAYIARPLPRAHIKEYFYTSGKCSNPAVVFVTRKNRQVCANPEKKWVREYINSLEMS,70,96.3,0.02 nM,0.091 nM
RANTES derivative: signature sequence SEQ ID NO: 8 fused to positions 10-68 of native RANTES (SEQ ID NO: 1) (ligand) QGPPLMWMQSCCFAYIARPLPRAHIKEYFYTSGKCSNPAVVFVTRKNRQVCANPEKKWVREYINSLEMS,0,2.5,0.03 nM,0.278 nM
RANTES derivative: signature sequence SEQ ID NO: 14 fused to positions 10-68 of native RANTES (SEQ ID NO: 1) (ligand) QGPLLMWLQVCCFAYIARPLPRAHIKEYFYTSGKCSNPAVVFVTRKNRQVCANPEKKWVREYINSLEMS,8,1.4,0.13 nM,–
RANTES derivative: signature sequence SEQ ID NO: 11 fused to positions 10-68 of native RANTES (SEQ ID NO: 1) (ligand) QGPPLMALQVCCFAYIARPLPRAHIKEYFYTSGKCSNPAVVFVTRKNRQVCANPEKKWVREYINSLEMS,9,1.6,0.03 nM,–
RANTES derivative: signature sequence SEQ ID NO: 10 fused to positions 10-68 of native RANTES (SEQ ID NO: 1) (ligand) QGPPLMWLQSCCFAYIARPLPRAHIKEYFYTSGKCSNPAVVFVTRKNRQVCANPEKKWVREYINSLEMS,0,2.3,0.03 nM,0.403 nM
RANTES derivative: signature sequence SEQ ID NO: 62 fused to positions 10-68 of native RANTES (SEQ ID NO: 1) (ligand) QGPPLMSTQVCCFAYIARPLPRAHIKEYFYTSGKCSNPAVVFVTRKNRQVCANPEKKWVREYINSLEMS,45,29.6,0.03 nM,–
RANTES derivative: signature sequence SEQ ID NO: 61 fused to positions 10-68 of native RANTES (SEQ ID NO: 1) (ligand) QGPPLQWMQVCCFAYIARPLPRAHIKEYFYTSGKCSNPAVVFVTRKNRQVCANPEKKWVREYINSLEMS,7,12.7,0.02 nM,–
RANTES derivative: signature sequence SEQ ID NO: 18 fused to positions 10-68 of native RANTES (SEQ ID NO: 1) (ligand) QGPPGSYDYSCCFAYIARPLPRAHIKEYFYTSGKCSNPAVVFVTRKNRQVCANPEKKWVREYINSLEMS,69,90.1,0.08 nM,–
RANTES derivative: signature sequence SEQ ID NO: 22 fused to positions 10-68 of native RANTES (SEQ ID NO: 1) (ligand) QGPPLMSFQSCCFAYIARPLPRAHIKEYFYTSGKCSNPAVVFVTRKNRQVCANPEKKWVREYINSLEMS,12,2.4,0.02 nM,0.47 nM
RANTES derivative: signature sequence SEQ ID NO: 65 fused to positions 10-68 of native RANTES (SEQ ID NO: 1) (ligand) QGPPLMSLQACCFAYIARPLPRAHIKEYFYTSGKCSNPAVVFVTRKNRQVCANPEKKWVREYINSLEMS,30,11.5,0.04 nM,–
RANTES derivative: signature sequence SEQ ID NO: 7 fused to positions 10-68 of native RANTES (SEQ ID NO: 1) (ligand) QGPPLMWTQVCCFAYIARPLPRAHIKEYFYTSGKCSNPAVVFVTRKNRQVCANPEKKWVREYINSLEMS,10,0.7,0.02 nM,0.179 nM
RANTES derivative: signature sequence SEQ ID NO: 12 fused to positions 10-68 of native RANTES (SEQ ID NO: 1) (ligand) QGPPLMWLGGCCFAYIARPLPRAHIKEYFYTSGKCSNPAVVFVTRKNRQVCANPEKKWVREYINSLEMS,4,4.1,0.03 nM,0.204 nM
RANTES derivative: signature sequence SEQ ID NO: 59 fused to positions 10-68 of native RANTES (SEQ ID NO: 1) (ligand) QGPPGQWYQSCCFAYIARPLPRAHIKEYFYTSGKCSNPAVVFVTRKNRQVCANPEKKWVREYINSLEMS,15,6,0.23 nM,–
RANTES derivative: signature sequence SEQ ID NO: 68 fused to positions 10-68 of native RANTES (SEQ ID NO: 1) (ligand) QGPPLMSGQSCCFAYIARPLPRAHIKEYFYTSGKCSNPAVVFVTRKNRQVCANPEKKWVREYINSLEMS,24,10.6,0.17 nM,–
